Here are results for two molecules from patent US20170283470A1 (OXFORD NANOPORE TECHNOLOGIES, published 2017).

The chains are these.
B1: CsgG (wild-type E. coli CsgG, outer membrane localized, C-terminally StrepII-tagged, membrane-extracted nonameric pore) (other)
chain: CLTAPPKEAARPTLMPRAQSYKDLTHLPAPTGKIFVSVYNIQDETGQFKPYPASNFSTAVPQSATAMLVTALKDSRWFIPLERQGLQNLLNERKIIRAAQENGTVAINNRIPLQSLTAANIMVEGSIIGYESNVKSGGVGARYFGIGADTQYQLDQIAVNLRVVNVSTGEILSSVNTSKTILSYEVQAGVFRFIDYQRLLEGEVGYTSNEPVMLCLMSAIETGVIFLINDGIDRGLWDLQNKAERQNDILVKYRHMSVPPES
modifications: N-terminal Cys of the mature protein triacylated (lipidated), as described in paragraph 145
notes: Produced from pPG1 in E. coli BL21(DE3) and extracted from outer membranes with detergent; It was amphipol A8-35-solubilized for native PAGE and EM, and reconstituted in planar phospholipid bilayers for single-channel recordings; also called CsgG channel; CsgG pore; not shown: C-terminal StrepII tag of construct pPG1
B2: CsgE (periplasmic accessory factor CsgE, his-tagged, CsgE-his) (other)
chain: VEVEVPGLLTDHTVSSIGHDFYRAFSDKWESDYTGNLTINERPSARWGSWITITVNQDVIFQTFLFPLKRDFEKTVVFALIQTEEALNRRQINQALLSTGDLAHDEF
notes: Added as purified monomeric CsgE; also called specificity factor CsgE; not shown: his tag (CsgE-his from pNH27)

Series [1] deals with the molecule itself. Kind of series: crystal structure, size-exclusion chromatography, EM and single-channel recordings.
Series [2] deals with B1. The series is described as follows: SYPRO orange fluorescence of CsgE and CsgG bands on SDS-PAGE of the complex band cut from native PAGE.

Consider B1, for which the binding result in series [1] is on record as “binds”.

Take B2: in series [2], the “CsgG/CsgE ratio (stoichiometry of the complex)” value amounted to 0.97.
